Seven molecules from US20240122983A1 (SHATTUCK LABS, published 2024) can be followed below.

The labels stand for the following.
T1: recombinant mouse mOX40 protein (mouse, UniProt P47741 20-211, limits assumed)
T1 sequence (looked up): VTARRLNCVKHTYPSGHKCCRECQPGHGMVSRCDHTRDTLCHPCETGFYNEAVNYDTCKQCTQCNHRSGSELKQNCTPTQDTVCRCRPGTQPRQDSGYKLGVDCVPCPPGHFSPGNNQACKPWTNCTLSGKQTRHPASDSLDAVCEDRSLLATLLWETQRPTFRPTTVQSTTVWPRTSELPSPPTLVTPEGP

B1: Standard(mCD40L) (ligand, mouse, UniProt P27548 112-260, looked up)
ligand chain: MQRGDEDPQIAAHVVSEANSNAASVLQWAKKGYYTMKSNLVMLENGKQLTVKREGLYYVYTQVTFCSNREPSSQRPFIVGLWLKPSSGSERILLKAANTHSSSQLCEQQSVHLGGVFELQAGASVFVNVTEASQVIHRVGFSSFGLLKL
notes: recombinant soluble protein; also called recombinant mCD40L protein
B2: recombinant mouse mFLT3 protein (receptor, UniProt Q00342 28-544, looked up)
chain: NQDLPVIKCVLISHENNGSSAGKPSSYRMVRGSPEDLQCTPRRQSEGTVYEAATVEVAESGSITLQVQLATPGDLSCLWVFKHSSLGCQPHFDLQNRGIVSMAILNVTETQAGEYLLHIQSEAANYTVLFTVNVRDTQLYVLRRPYFRKMENQDALLCISEGVPEPTVEWVLCSSHRESCKEEGPAVVRKEEKVLHELFGTDIRCCARNALGRESTKLFTIDLNQAPQSTLPQLFLKVGEPLWIRCKAIHVNHGFGLTWELEDKALEEGSYFEMSTYSTNRTMIRILLAFVSSVGRNDTGYYTCSSSKHPSQSALVTILEKGFINATSSQEEYEIDPYEKFCFSVRFKAYPRIRCTWIFSQASFPCEQRGLEDGYSISKFCDHKNKPGEYIFYAENDDAQFTKMFTLNIRKKPQVLANASASQASCSSDGYPLPSWTWKKCSDKSPNCTEEIPEGVWNKKANRKVFGQWVSSSTLNMSEAGKGLLVKCCAYNSMGTSCETIFLNSPGPFPFIQDNIS
B3: Standard mFlt3L (ligand)
chain: GTPDCYFSHSPISSNFKVKFRELTDHLLKDYPVTVAVNLQDEKHCKALWSLFLAQRWIEQLKTVAGSKMQTLLEDVNTEIHFVTSCTFQPLPECLRFVQTNISHLLKDTCTQLLALKPCIGKACQNFSRCLEVQCQPDSSTLLPPRSPIALEATELPEPRPRQ
notes: also called recombinant mFLT3L protein
B4: mFLT3L-Fc-GITRL chimeric protein (Fc fusion, murine;mouse (printed as mFc), UniProt P49772 27-189, looked up)
chain: GTPDCYFSHSPISSNFKVKFRELTDHLLKDYPVTVAVNLQDEKHCKALWSLFLAQRWIEQLKTVAGSKMQTLLEDVNTEIHFVTSCTFQPLPECLRFVQTNISHLLKDTCTQLLALKPCIGKACQNFSRCLEVQCQPDSSTLLPPRSPIALEATELPEPRPRQVPRDCGCKPCICTVPEVSSVFIFPPKPKDVLTITLTPKVTCVVVDISKDDPEVQFSWFVDDVEVHTAQTQPREEQFNSTFRSVSELPIMHQDWLNGKEFKCRVNSAAFPAPIEKTISKTKGRPKAPQVYTIPPPKEQMAKDKVSLTCMITDFFPEDITVEWQWNGQPAENYKNTQPIMNTNGSYFVYSKLNVQKSNWEAGNTFTCSVLHEGLHNHHTEKSLSHSPGKTSLKPTAIESCMVKFELSSSKWHMTSPKPHCVNTTSDGKLKILQSGTYLIYGQVIPVDKKYIKDNAPFVVQIYKKNDVLQTLMNDFQILPIGGVYELHAGDNIYLKFNSKDHIQKTNTYWGIILMPDLPFIS
notes: extracellular domain;domain: hinge-CH2-CH3 Fc domain; Expressed in 293 cells, purified on protein A; multimer when not reduced; also called murine FLT3L-Fc-GITRL; mFLT3-Fc-GITRL
B5: mFLT3L-Fc-OX40L chimeric protein (Fc fusion, murine;mouse (printed as mFc), UniProt P49772 27-189, looked up)
chain: GTPDCYFSHSPISSNFKVKFRELTDHLLKDYPVTVAVNLQDEKHCKALWSLFLAQRWIEQLKTVAGSKMQTLLEDVNTEIHFVTSCTFQPLPECLRFVQTNISHLLKDTCTQLLALKPCIGKACQNFSRCLEVQCQPDSSTLLPPRSPIALEATELPEPRPRQVPRDCGCKPCICTVPEVSSVFIFPPKPKDVLTITLTPKVTCVVVDISKDDPEVQFSWFVDDVEVHTAQTQPREEQFNSTFRSVSELPIMHQDWLNGKEFKCRVNSAAFPAPIEKTISKTKGRPKAPQVYTIPPPKEQMAKDKVSLTCMITDFFPEDITVEWQWNGQPAENYKNTQPIMNTNGSYFVYSKLNVQKSNWEAGNTFTCSVLHEGLHNHHTEKSLSHSPGKSSSPAKDPPIQRLRGAVTRCEDGQLFISSYKNEYQTMEVQNNSVVIKCDGLYIIYLKGSFFQEVKIDLHFREDHNPISIPMLNDGRRIVFTVVASLAFKDKVYLTVNAPDTLCEHLQINDGELIVVQLTPGYCAPEGSYHSTVNQVPL
notes: extracellular domain;domain: hinge-CH2-CH3 Fc domain; Expressed in 293 cells, purified on protein A; multimer when not reduced; also called murine FLT3L-Fc-OX40L
B6: mFLT3L-Fc-CD40L chimeric protein (Fc fusion, murine;mouse (printed as mFc), UniProt P49772 27-189, looked up)
chain: GTPDCYFSHSPISSNFKVKFRELTDHLLKDYPVTVAVNLQDEKHCKALWSLFLAQRWIEQLKTVAGSKMQTLLEDVNTEIHFVTSCTFQPLPECLRFVQTNISHLLKDTCTQLLALKPCIGKACQNFSRCLEVQCQPDSSTLLPPRSPIALEATELPEPRPRQVPRDCGCKPCICTVPEVSSVFIFPPKPKDVLTITLTPKVTCVVVDISKDDPEVQFSWFVDDVEVHTAQTQPREEQFNSTFRSVSELPIMHQDWLNGKEFKCRVNSAAFPAPIEKTISKTKGRPKAPQVYTIPPPKEQMAKDKVSLTCMITDFFPEDITVEWQWNGQPAENYKNTQPIMNTNGSYFVYSKLNVQKSNWEAGNTFTCSVLHEGLHNHHTEKSLSHSPGKHRRLDKVEEEVNLHEDFVFIKKLKRCNKGEGSLSLLNCEEMRRQFEDLVKDITLNKEEKKENSFEMQRGDEDPQIAAHVVSEANSNAASVLQWAKKGYYTMKSNLVMLENGKQLTVKREGLYYVYTQVTFCSNREPSSQRPFIVGLWLKPSSGSERILLKAANTHSSSQLCEQQSVHLGGVFELQAGASVFVNVTEASQVIHRVGFSSFGLLKL
notes: extracellular domain;domain: hinge-CH2-CH3 Fc domain; Expressed in 293 cells, purified on protein A; multimer when not reduced; also called murine FLT3L-Fc-CD40L; mFLT3-Fc-CD40L
B7: recombinant mouse mCD40 protein (receptor, UniProt P27512 20-193, looked up)
chain: LGQCVTCSDKQYLHDGQCCDLCQPGSRLTSHCTALEKTQCHPCDSGEFSAQWNREIRCHQHRHCEPNQGLRVKKEGTAESDTVCTCKEGQHCTSKDCEACAQHTPCIPGFGVMEMATETTDTVCHPCPVGFFSNQSSLFEKCYPWTSCEDKNLEVLQKGTSQTNVICGLKSRMR

Like-named read-outs stand apart in the source and are kept apart here.

Test [1] has as its target B7. The experiment in a line: ELISA: plate-bound mCD40 (5ug/ml), detection anti-mCD40L (1:1000) and anti-goat IgG (1:10,000). The text has this:
(§1) Recombinant mFLT3L protein was used to generate a standard curve. […] A mouse whole IgG was used to generate a standard curve. […] Recombinant mCD40L protein was used to generate a standard curve.
On the technique in general: ELISA stands for enzyme-linked immunosorbent assay.

The target in test [2] is B6. The experiment in a line: Octet biolayer interferometry, loading mFLT3-his, analyte Conc. 142.9 nM, Full R2 0.9654. The source says:
(§2) Octet was used to determine on-/off-rates and binding affinities to the target receptors.
(BLI is a label-free optical method that tracks binding on a fibre tip over time.)

In test [3] the target is B2. Kind of test: ELISA: plate-bound mFlt3 (10ug/ml), detection goat anti-mFlt3L (1:1000) and anti-goat IgG (10,000).
From the text: as §1

In test [4] the target is T2, anti-mIgG.
T2 construct: capture antibody of the mFc ELISA; also called Capture Ab: anti-mIgG(10ug/ml)
The experiment in a line: ELISA: plate-bound anti-mIgG (10ug/ml), detection anti-mIgG-HRP (1:1000). The text has this:
Recombinant mFLT3L protein was used to generate a standard curve. […] A mouse whole IgG was used to generate a standard curve. […] Recombinant mGITRL protein was used to generate a standard curve.

For test [5], the target named is T2, anti-mIgG. The description is as above. The source says: Recombinant mFLT3L protein was used to generate a standard curve. […] A mouse whole IgG was used to generate a standard curve. […] Recombinant m4-1BBL protein was used to generate a standard curve.
(§3) Recombinant mFLT3L protein was used to generate a standard curve. […] A mouse whole IgG was used to generate a standard curve. […] Recombinant mOX40L protein was used to generate a standard curve.
This is another data set of the same source.

Test [6] addresses T2, anti-mIgG. Described as above.
From the text: as §3
The source holds these as a separate data set.

Test [7] deals with T1, recombinant mouse mOX40 protein. The experiment in a line: Dual ELISA: capture anti-FLT3L (R&D AF427), detection with mOX40-His (Acro), tertiary anti-His/HRP (Abcam). The protocol: (§4) Capture was performed with an anti-FLT3L antibody, followed by detection of the co-stimulatory domain with a his-tagged recombinant protein, and visualized using an anti-his/HRP antibody.
In test [8] the target is B7. The experiment in a line: Dual ELISA: capture anti-FLT3L (R&D AF427), detection with mCD40-His (Acro), tertiary anti-His/HRP (Abcam). As to the method: as §4
Test [9] has as its target B6. Kind of test: Octet biolayer interferometry, loading mCD40-his, analyte Conc. 142.9 nM, Full R2 0.995.
From the text: as §2

For orientation: EC50 (read off the curve) means the concentration at which the effect is half-maximal. In the case of B1, in test [1], the “EC50 (read off the curve)” value is roughly 10 nM.

A word on the Kd: it is the free concentration of one partner at which half of the binding sites on the other are occupied at equilibrium, for simple one-to-one binding. High values mean a looser complex, low ones a tighter complex. The term koff denotes the first-order rate constant of dissociation. A higher koff goes with a short-lived complex. Usually kon stands for a measure of how fast the partners come together. A higher kon goes with faster complex formation. In test [2], B2 showed a Kd of 15.2 nM, a koff of 0.00312 s⁻¹ and a kon of 205000 M⁻¹ s⁻¹.

Consider B3, for which the binding result in test [3] is on record as “binds”.

In the case of B4, the “EC50 (read off the curve)” value with anti-mIgG [4] and with anti-mIgG [5] was roughly 6 nM each time.

As for B5, the “EC50 (read off the curve)” value with anti-mIgG [6] was roughly 20 nM; in the test with anti-mIgG [5], roughly 20 nM; in test [7], roughly 1 nM.

In the case of B6, in [8], the “EC50 (read off the curve)” value is roughly 1 nM.

In test [9], B7 displayed a dissociation constant (Kd) of 14.2 nM, a koff of 0.000858 s⁻¹ and a kon of 61800 M⁻¹ s⁻¹.
